Assay results reported in the supplement of paper PMC11136658.

Tested on: peptide library, one residue held at a place counted from the Y acceptor
Experiment: relative phosphorylation of the sub-library (ratio to the mean residue at this position); higher = residue favoured
Method in brief: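 Every value reflects phosphorylation relative to the mean randomized residue. The sum of the 18 randomized residues, or 16 in the Ser/Thr-free library, served to normalize intensities at each position, which were then multiplied by that number. Intensities came from phosphorimaging with ImageQuant of biotinylated Tyr-centred peptides captured on streptavidin membranes after 90 min with purified recombinant kinases and 50 μM ATP plus γ-32P-ATP.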

FER, construct: aa-541-end, human, sequence (P16591 whole entry, looked up): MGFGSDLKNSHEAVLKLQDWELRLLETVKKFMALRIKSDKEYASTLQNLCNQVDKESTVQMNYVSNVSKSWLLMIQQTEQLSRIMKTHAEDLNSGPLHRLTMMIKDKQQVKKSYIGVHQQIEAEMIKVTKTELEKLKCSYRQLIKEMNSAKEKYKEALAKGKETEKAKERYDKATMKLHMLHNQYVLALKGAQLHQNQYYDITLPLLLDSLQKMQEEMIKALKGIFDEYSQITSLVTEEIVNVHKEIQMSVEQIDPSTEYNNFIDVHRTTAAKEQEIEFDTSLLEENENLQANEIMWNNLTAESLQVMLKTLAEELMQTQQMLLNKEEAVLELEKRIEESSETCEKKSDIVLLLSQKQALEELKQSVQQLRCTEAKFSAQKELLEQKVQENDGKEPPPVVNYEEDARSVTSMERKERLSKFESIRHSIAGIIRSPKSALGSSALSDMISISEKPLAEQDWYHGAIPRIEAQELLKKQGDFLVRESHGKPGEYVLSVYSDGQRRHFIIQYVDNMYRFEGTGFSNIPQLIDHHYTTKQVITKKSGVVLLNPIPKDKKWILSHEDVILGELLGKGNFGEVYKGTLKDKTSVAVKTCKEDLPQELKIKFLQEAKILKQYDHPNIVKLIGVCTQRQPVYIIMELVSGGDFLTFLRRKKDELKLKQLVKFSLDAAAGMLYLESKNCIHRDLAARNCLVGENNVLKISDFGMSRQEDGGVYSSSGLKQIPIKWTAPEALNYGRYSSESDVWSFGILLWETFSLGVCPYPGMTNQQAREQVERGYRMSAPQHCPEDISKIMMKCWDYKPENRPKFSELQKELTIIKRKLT

FER, construct: aa-541-end, human (from UniProt P16591)
relative phosphorylation
Conditions | at +1 | at +2 | at +3 | at +4 | at +5 | at -1 | at -2 | at -3 | at -4 | at -5
A fixed | 1.7 | 0.886 | 0.866 | 0.927 | 1.07 | 0.942 | 1 | 0.818 | 1.1 | 1.05
D fixed | 1.32 | 0.911 | 0.521 | 0.838 | 0.592 | 1.12 | 1.15 | 1.29 | 1.31 | 1.22
E fixed | 2.5 | 1.28 | 0.611 | 1.42 | 0.604 | 1.19 | 1.48 | 1.74 | 1.62 | 1.13
F fixed | 0.517 | 1.27 | 1.41 | 1.11 | 1.29 | 1.45 | 0.696 | 0.988 | 1.05 | 0.972
G fixed | 1.24 | 0.645 | 0.606 | 0.94 | 0.882 | 0.427 | 1.09 | 1.1 | 1.12 | 1.17
H fixed | 0.647 | 0.83 | 1.93 | 1.12 | 0.933 | 1.52 | 1.1 | 1.07 | 0.885 | 0.982
I fixed | 0.832 | 1.03 | 1.73 | 0.911 | 1.14 | 1.85 | 0.934 | 0.804 | 0.92 | 1.01
K fixed | 0.31 | 0.646 | 0.36 | 0.941 | 0.58 | 0.357 | 0.735 | 0.617 | 0.798 | 0.831
L fixed | 0.71 | 1.15 | 1.06 | 0.874 | 1.31 | 1.43 | 0.916 | 0.84 | 0.958 | 0.977
M fixed | 0.969 | 0.973 | 1.12 | 1.29 | 1.08 | 1.06 | 0.76 | 1.01 | 0.93 | 1.06
N fixed | 0.751 | 1.18 | 0.836 | 0.923 | 0.708 | 0.983 | 1.26 | 1.35 | 0.973 | 1.12
P fixed | 0.323 | 0.867 | 0.89 | 0.873 | 2.09 | 1.05 | 1.05 | 0.971 | 1.08 | 1.02
Q fixed | 1.48 | 0.878 | 0.658 | 1.11 | 0.846 | 0.73 | 1.18 | 0.859 | 1.14 | 1.05
R fixed | 0.35 | 0.737 | 0.547 | 1.12 | 0.721 | 0.309 | 0.901 | 0.762 | 0.757 | 0.898
S fixed | 1.42 | 0.917 | 0.82 | 0.766 | 0.999 | 0.619 | 1.1 | 1 | 0.794 | 0.849
T fixed | 1.14 | 0.96 | 0.839 | 0.775 | 1.05 | 0.866 | 0.932 | 0.997 | 0.664 | 0.824
V fixed | 1.13 | 0.929 | 1.34 | 0.922 | 1.19 | 1.29 | 0.897 | 0.788 | 0.825 | 0.807
W fixed | 0.667 | 1.91 | 1.86 | 1.14 | 0.931 | 0.809 | 0.824 | 0.981 | 1.07 | 1.04
pThr fixed | 1.55 | 1.12 | 0.721 | 0.549 | 0.543 | 1.14 | 1.18 | 1.26 | 1.2 | 1.09
pTyr fixed | 2 | 1.26 | 1.01 | 0.849 | 0.471 | 3.56 | 1.58 | 1.81 | 1.63 | 1.13
